# Numbering of substitutions follows the chain as printed. Names and notes keep the numbering of the source. Read-outs that look alike come from different tables or passages of the source.
# B1: ActRIIB(L79D 20-134)-hFc (protein)
# chain: GRGEAETRECIYYNANWELERTNQSGLERCEGEQDKRLHCYASWRNSSGTIELVKKGCWDDDFNCYDRQECVATEENPQVYFCCCEGNFCNERFTHLPEAGGPEVTYEPPPTAPTGGGTHTCPPCPAPELLGGPSVFLFPPKPKDTLMISRTPEVTCVVVDVSHEDPEVKFNWYVDGVEVHNAKTKPREEQYNSTYRVVSVLTVLHQDWLNGKEYKCKVSNKALPVPIEKTISKAKGQPREPQVYTLPPSREEMTKNQVSLTCLVKGFYPSDIAVEWESNGQPENNYKTTPPVLDSDGSFFLYSKLTVDKSRWQQGNVFSCSVMHEALHNHYTQKSLSLSPGK
# B2: ALK4-Fc homodimer (protein)
# chain: SGPRGVQALLCACTSCLQANYTCETDGACMVSIFNLDGMEHHVRTCIPKVELVPAGKPFYCLSSEDLRNTHCCYTDYCNRIDLRVPSGHLKEPEHPSMWGPVE
# B3: ActRIIB(R64K 20-129)-hFc (protein)
# chain: GRGEAETRECIYYNANWELERTNQSGLERCEGEQDKRLHCYASWKNSSGTIELVKKGCWLDDFNCYDRQECVATEENPQVYFCCCEGNFCNERFTHLPEAGGPEVTYEPP
# B4: ActRIIB(20-134)-hFc (protein)
# chain: B1 chain with D60L
# B5: ALK4-Fc:ActRIIB-Fc heterodimer (protein)
# chain 1: SGPRGVQALLCACTSCLQANYTCETDGACMVSIFNLDGMEHHVRTCIPKVELVPAGKPFYCLSSEDLRNTHCCYTDYCNRIDLRVPSGHLKEPEHPSMWGPVETGGGTHTCPPCPAPELLGGPSVFLFPPKPKDTLMISRTPEVTCVVVDVSHEDPEVKFNWYVDGVEVHNAKTKPREEQYNSTYRVVSVLTVLHQDWLNGKEYKCKVSNKALPAPIEKTISKAKGQPREPQVYTLPPSREEMTKNQVSLTCLVKGFYPSDIAVEWESNGQPENNYDTTPPVLDSDGSFFLYSDLTVDKSRWQQGNVFSCSVMHEALHNHYTQKSLSLSPG
# chain 2: B1 chain with D60L, V226A, E252K, D295K
# B6: ActRIIB-Fc K55A (protein)
# chain: B1 chain with K55A, D60L
# B7: ActRIIB-Fc +15tail (protein)
# chain: B1 chain with D60L
# Tests used:
# Activin B [1] = target: T1, Activin B (human, UniProt P09529); experiment: SPR
# T1 chain: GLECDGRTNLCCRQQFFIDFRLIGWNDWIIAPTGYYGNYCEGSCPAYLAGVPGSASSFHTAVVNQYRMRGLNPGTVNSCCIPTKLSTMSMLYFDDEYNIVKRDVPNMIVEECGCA
# GDF11 [2] = target: T2, GDF11 (human, UniProt O95390); experiment: SPR
# T2 chain: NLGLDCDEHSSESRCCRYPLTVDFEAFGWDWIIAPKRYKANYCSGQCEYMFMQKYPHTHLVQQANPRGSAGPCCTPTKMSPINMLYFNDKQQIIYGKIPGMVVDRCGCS
# Activin A [3] = target: T3, Activin A (human, UniProt P08476); experiment: SPR
# T3 chain: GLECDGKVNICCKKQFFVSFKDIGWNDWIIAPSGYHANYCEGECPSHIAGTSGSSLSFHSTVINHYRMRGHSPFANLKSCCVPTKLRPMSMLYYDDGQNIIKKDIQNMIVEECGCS
# GDF11 [4] = target: T2, GDF11; experiment: SPR, very low signal
# GDF8 [5] = target: T4, GDF8 (human, UniProt O14793); experiment: SPR
# T4 sequence (O14793 267-375): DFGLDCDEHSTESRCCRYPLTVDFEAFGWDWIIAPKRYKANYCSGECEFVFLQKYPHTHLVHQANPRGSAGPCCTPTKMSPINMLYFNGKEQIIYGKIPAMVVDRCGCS
# Activin A [6] = target: T3, Activin A; experiment: SPR
# BMP6 = target: T5, BMP6 (human, UniProt P22004); experiment: SPR
# T5 chain: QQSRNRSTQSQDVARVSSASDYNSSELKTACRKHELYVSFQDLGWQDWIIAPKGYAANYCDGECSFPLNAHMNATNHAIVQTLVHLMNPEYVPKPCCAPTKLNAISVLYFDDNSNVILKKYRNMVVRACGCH
# BMP10 = target: T6, BMP10 (human, UniProt O95393); experiment: SPR
# T6 chain: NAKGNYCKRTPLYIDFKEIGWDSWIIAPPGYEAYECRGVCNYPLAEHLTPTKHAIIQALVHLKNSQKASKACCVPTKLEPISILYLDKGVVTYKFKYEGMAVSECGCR
# GDF3 = target: T7, GDF3 (human, UniProt Q9NR23); experiment: SPR
# T7 chain: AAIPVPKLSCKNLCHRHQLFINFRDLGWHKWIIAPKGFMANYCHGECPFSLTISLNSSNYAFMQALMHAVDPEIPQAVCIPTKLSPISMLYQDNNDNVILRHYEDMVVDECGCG
# GDF8 [7] = target: T4, GDF8; experiment: SPR; remark: listed apart in the source
# GDF11 [8] = target: T2, GDF11; experiment: SPR
# Activin A [9] = target: T3, Activin A; experiment: SPR
# Activin B [10] = target: T1, Activin B; experiment: SPR
# BMP9 = target: T8, BMP9 (human, UniProt Q9UK05); experiment: SPR, transient
# T8 chain: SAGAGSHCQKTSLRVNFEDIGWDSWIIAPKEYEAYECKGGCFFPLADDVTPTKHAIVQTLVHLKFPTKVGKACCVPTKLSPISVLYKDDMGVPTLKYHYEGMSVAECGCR
# GDF11 [11] = target: T2, GDF11; experiment: SPR
# Activin A [12] = target: T3, Activin A; experiment: SPR
binder,measurement,setting,value
B1,Kd,Activin B [1],788 pM
same,Kd,GDF11 [2],123 pM
same,Kd,Activin A [3],13500 pM
B2,Kd,GDF11 [4],270 pM
B3,Kd,GDF8 [5],2150 pM
same,Kd,Activin A [6],84.1 pM
B4,Kd,Activin B [1],12 pM
same,Kd,GDF11 [2],36 pM
same,Kd,Activin A [3],16 pM
B5,Kd,BMP6,2700 pM
same,Kd,BMP10,74 pM
same,Kd,GDF3,4900 pM
same,Kd,GDF8 [7],550 pM
same,Kd,GDF11 [8],3 pM
same,Kd,Activin A [9],12 pM
same,Kd,Activin B [10],6 pM
same,Kd,BMP9,3400 pM
B6,binding result,GDF11 [11],no binding
B7,Kd,Activin A [12],~26000 pM

# From patent US10722558 (dated 2020)
